Sequences and labels used below:
B1: VHH-1.3-3: VHH-1.3 variant I39Y, G40S, R55W, SEQ ID NO: 188; tested as Fc fusion (protein)
VHH: EVQLVESGGGLVQPGGSLRLSCAASGSTSSIRRYSWYRQAPGKGRELVAWFSSGGGTNYADSVKGRFTISGDNSKNTMYLQMNSLRAEDTAVYYCSARRLLGTSRVDYWGQGTQVTVSS
B2: VHH-1.3-6: VHH-1.3 variant R55H, SEQ ID NO: 191; tested as Fc fusion (protein)
VHH: B1 VHH with Y34I, S35G, W50H, Q114T
B3: VHH-1.3-21: VHH-1.3 variant A25V, R38G, S57I, G81A, SEQ ID NO: 206; tested as Fc fusion (protein)
VHH: B1 VHH with A24V, R33G, Y34I, S35G, W50R, S52I, G71A
B4: VHH-1.3-16: VHH-1.3 variant S35T, R37V, G64S, R108I, SEQ ID NO: 201; tested as Fc fusion (protein)
VHH: B1 VHH with S30T, R32V, Y34I, S35G, W50R, G56S, R99I, Q114T
B5: VHH-1.3-19: VHH-1.3 variant A25V, R38G, R55H, N83K, SEQ ID NO: 204; tested as Fc fusion (protein)
VHH: B1 VHH with A24V, R33G, Y34I, S35G, W50H, N73K
B6: VHH-1.3-7: VHH-1.3 variant A25V, R55H, N82K, SEQ ID NO: 192; tested as Fc fusion (protein)
VHH: B1 VHH with A24V, Y34I, S35G, W50H, N73K, Q114T
B7: VHH-1.3-17: VHH-1.3 variant R37V, R55H, R108I, N83K, SEQ ID NO: 202; tested as Fc fusion (protein)
VHH: B1 VHH with A24V, R32V, Y34I, S35G, W50H, N73K, R99I, Q114T
B8: VHH-1.3-12: VHH-1.3 variant S28F, G64T, L110Y, SEQ ID NO: 197; tested as Fc fusion (protein)
VHH: B1 VHH with S27F, Y34I, S35G, W50R, G56T, L101Y
B9: VHH-1.3-15: VHH-1.3 variant S58G, SEQ ID NO: 200; tested as Fc fusion (protein)
VHH: B1 VHH with Y34I, S35G, W50R, S53G, Q114T
B10: VHH-1.3-4: VHH-1.3 variant R38T, R108I, SEQ ID NO: 189; tested as Fc fusion (protein)
VHH: B1 VHH with R33T, Y34I, S35G, W50R, R99I, Q114T
B11: VHH-1.3-1: VHH-1.3 variant G64S, SEQ ID NO: 186; tested as Fc fusion (protein)
VHH: B1 VHH with Y34I, S35G, W50R, G56S, Q114T
B12: VHH-1.3-10: VHH-1.3 variant T65I, L110V, SEQ ID NO: 195; tested as Fc fusion (protein)
VHH: B1 VHH with E1Q, V5Q, Y34I, S35G, W50R, T57I, L101V
B13: VHH-1.3-14: VHH-1.3 variant G64S, L110V, SEQ ID NO: 199; tested as Fc fusion (protein)
VHH: B1 VHH with Y34I, S35G, W50R, G56S, T57I, L101V
B14: VHH-1.3-2: VHH-1.3 variant L110V, SEQ ID NO: 187; tested as Fc fusion (protein)
VHH: B1 VHH with Y34I, S35G, W50R, L101V, Q114T
B15: VHH-1.3-5: VHH-1.3 variant R55G, SEQ ID NO: 190; tested as Fc fusion (protein)
VHH: B1 VHH with Y34I, S35G, W50G, Q114T
B16: VHH-1.3-18: VHH-1.3 variant A25V, R38G, S57I, N83K, SEQ ID NO: 203; tested as Fc fusion (protein)
VHH: B1 VHH with A24V, R33G, Y34I, S35G, W50R, S52I, N73K, Q114T
B17: VHH-1.3-20: VHH-1.3 variant A25V, R38G, S57I, R108I, SEQ ID NO: 205; tested as Fc fusion (protein)
VHH: B1 VHH with A24V, R33G, Y34I, S35G, W50R, S52I, R99I
B18: VHH-1.3-11: VHH-1.3 variant G64T, SEQ ID NO: 196; tested as Fc fusion (protein)
VHH: B1 VHH with E1Q, V5Q, Y34I, S35G, W50R, G56T, T57I
B19: VHH-1.3-13: VHH-1.3 variant A25V, R38G, S57I, SEQ ID NO: 198; tested as Fc fusion (protein)
VHH: B1 VHH with A24V, R33G, Y34I, S35G, W50R, S52I
B20: VHH-2.3-1: VHH-2.3 variant D81G, SEQ ID NO: 207; tested as Fc fusion (protein)
VHH: EVQLVESGGGLVQPGGSLRLSCAVSGSTSTINRFAWYRQAPGKGRELVAATSSRTSPNYADSVKGRFTFSRGNSKNTVYLQMNSLRAEDTAVYYCQARMAMGSSQVVYWGQGTTVTVSS
B21: VHH-2.3-2: VHH-2.3 variant D81G, M108K, SEQ ID NO: 208; tested as Fc fusion (protein)
VHH: B20 VHH with M99K
B22: VHH-2.3-3: VHH-2.3 variant P65L, SEQ ID NO: 209; tested as Fc fusion (protein)
VHH: B20 VHH with P57L, G72D

Changes are numbered by the printed parent chain. In names and notes the source's numbering stands.

T1 sequence (P51685 whole entry): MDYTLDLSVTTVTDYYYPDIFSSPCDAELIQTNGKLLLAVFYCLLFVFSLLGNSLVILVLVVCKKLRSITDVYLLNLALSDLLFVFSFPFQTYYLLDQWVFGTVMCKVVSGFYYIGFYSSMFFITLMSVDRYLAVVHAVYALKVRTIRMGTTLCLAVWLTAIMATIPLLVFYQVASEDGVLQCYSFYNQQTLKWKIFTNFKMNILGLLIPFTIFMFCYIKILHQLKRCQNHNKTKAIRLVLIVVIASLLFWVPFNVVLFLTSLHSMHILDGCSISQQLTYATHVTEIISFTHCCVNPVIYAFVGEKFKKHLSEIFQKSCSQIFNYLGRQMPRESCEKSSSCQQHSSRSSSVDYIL

The first assay concerns the target T1, HuT-78 cells that naturally express human CCR8 (Homo sapiens, UniProt P51685).
T1 construct: HuT-78 cells that naturally express human CCR8 were used as target cells; endogenous in cells; host or cells: HuT-78
Description: Flow cytometry binding of yeast-display optimized VHH-Fc antibodies to HuT-78 cells. The following applies: Table 13; clones tested as VHH-Fc fusions (human IgG1 Fc), HuT-78 cells. An excerpt:
Top VHH sequences were chosen from the FACS sorted populations based on an analysis of improved binding performance relative to the parental sequences and evidence of sequence enrichment by NGS. Candidate VHH were then cloned as VHH-Fc fusions to the short hinge of the IgG1 Fc domain (SEQ ID NO: 34), expressed in HEK293 cells as described earlier and purified for binding evaluation. Bmax values are shown as normalized to VHH-1 or VHH-2 depending on the clone family. […] Mutations are referenced by position according to the IMGT definition.
(Flow cytometry measures light scatter and fluorescence of single cells or particles in a stream.)
Broadly, the EC50 is the concentration at which the effect is half-maximal. B1 displayed an EC50 of 1.81 nM.

Turning to B2, the EC50 turned out to be 3.75 nM.

With B3, the EC50 came out at 1.62 nM.

Take B4: a half-maximal effect (EC50) was put at 3.1 nM.

The molecule B5 returned an EC50 of 0.45 nM.

Molecule B6 displayed an EC50 of 0.56 nM.

Regarding B7, the EC50 was 0.67 nM.

B8: the 50% effective concentration (EC50) was 1.24 nM.

In turn, B9 came in with an EC50 of 2.82 nM. This EC50 lies about 2.3-fold higher than the previous one.

As for B10, the response was half-maximal at 7.68 nM (EC50).

B11 came in with an EC50 of 2.03 nM.

As to B12, the EC50 is 1.3 nM. This EC50 lies about 1.6-fold lower than the previous one.

B13 came in with an EC50 of 0.9 nM.

Consider B14, for which the response was half-maximal at 2.21 nM (EC50). Compared with the last molecule, the EC50 is about 2.5-fold higher.

Molecule B15 yielded an EC50 of 4.42 nM.

For the molecule B16, a half-maximal response (EC50) required 0.31 nM.

Turning to B17, the EC50 was 0.49 nM.

Take B18: the midpoint of the response, the EC50, lay at 0.61 nM.

B19 returned an EC50 of 0.38 nM. Compared with the last molecule, the EC50 is about 1.6-fold lower.

B20: it took 0.23 nM to reach a half-maximal effect (EC50).

B21: the response was half-maximal at 0.12 nM (EC50).

As to B22, the EC50 worked out at 1.7 nM. Against the preceding molecule, the EC50 is about 14-fold higher.

The same assay, now with this note: Table 13; normalized to VHH-1 or VHH-2 depending on clone family.
For the molecule B1, the “Normalized Bmax (%)” value worked out at 104.4%.

For the molecule B2, the “Normalized Bmax (%)” value stood at 97.0%.

Take B3: the “Normalized Bmax (%)” value was found to be 133.9%.

With B4, the “Normalized Bmax (%)” value is given as 79.0%.

Regarding B5, the “Normalized Bmax (%)” value is listed as 130.0%.

For B6, the “Normalized Bmax (%)” value was 111.8%.

With B7, the “Normalized Bmax (%)” value was 72.8%.

B8: the “Normalized Bmax (%)” value is listed as 79.6%.

As for B9, the “Normalized Bmax (%)” value came to 107.1%.

In the case of B10, the “Normalized Bmax (%)” value is on record as 82.4%.

Turning to B11, the “Normalized Bmax (%)” value is 85.3%.

For the molecule B12, the “Normalized Bmax (%)” value was found to be 125.4%.

Take B13: the “Normalized Bmax (%)” value is given as 131.9%.

Regarding B14, the “Normalized Bmax (%)” value came to 115.7%.

As to B15, the “Normalized Bmax (%)” value is 90.1%.

As for B16, the “Normalized Bmax (%)” value was 113.4%.

In the case of B17, the “Normalized Bmax (%)” value is 107.6%.

B18: the “Normalized Bmax (%)” value is on record as 79.6%.

As to B19, the “Normalized Bmax (%)” value is reported as 91.1%.

For the molecule B20, the “Normalized Bmax (%)” value was 118.3%.

B21: the “Normalized Bmax (%)” value was 131.9%.

As for B22, the “Normalized Bmax (%)” value is recorded as 83.3%.

Values taken from patent publication US20250092146A1, “ANTI-CCR8 ANTIBODIES, CONJUGATES, AND USES THEREOF” (Abilita Bio, Inc., priority 2023, published 2025).
